This note sets out measurements from patent US20170298119A1.

Sequences and labels used below:
B1: ZC6 (antibody, V domains shown)
VH: QVQLVQSGAEVKKPGASVKVSCKASGYSFTTYGISWVRQAPGQGLEWMGVIYPRSGNTYYAQKLQGRVTMTTDTSTSTAYMELRSLRSDDTAVYYCARENYGSVYWGQGTLVTVSS
VL: DIQMTQSPSSLSASVGDRVTITCKASQSVGTAVAWYQQKPGKAPKLLIYSASNRYTGVPSRFSGSGSGTDFTLTISSLQPEDFATYFCQQFSNYPFTFGGGTKVEIK
B2: ZC1 (antibody, V domains shown)
VH: QVQLVQSGAEVKKPGASVKVSCKASGYTFTSYGISWVRQATGQGLEWMGVIYPRSGNTYYAEKFRGRVTMTADKSISTAYMELSSLRSEDTAVYYCARENYGSVYWGQGTLVTVSS
VL: EIVMTQSPATLSVSPGERATLSCRASQSVGTAVAWYQQKPGQAPRLLIYSASNRYTGIPARFSGSGSGTEFTLTISSLQSEDFADYFCQQFYNYPFTFGGGTKVEIK
B3: ZC5 (antibody, V domains shown)
VH: QVQLVQSGAEVKKPGASVKVSCKASGYSFTTYGISWVRQAPGQGLEWMGVIYPRSGNTYYAQKLQGRVTMTTDTSTSTAYMELRSLRSDDTAVYYCARENYGSVYWGQGTLVTVSS
VL: EIVMTQSPATLSVSPGERATLSCRASQSVGTAVAWYQQKPGQAPRLLIYSASNRYTGIPARFSGSGSGTEFTLTISSLQSEDFADYFCQQFYNYPFTFGGGTKVEIK
B4: ZC9 (antibody, V domains shown)
VH: QVQLVQSGAEVKKPGASVKVSCKASGYTFTSYGISWVRQAPGQGLEWMGVIYPRSGNTYYAQKLQGRVTMTTDTSTSTAYMELRSLRSDDTAVYYCARENYGSVYWGQGTLVTVSS
VL: EIVMTQSPATLSVSPGERATLSCRASQSVGTAVAWYQQKPGQAPRLLIYSASNRYTGIPARFSGSGSGTEFTLTISSLQSEDFADYFCQQFYNYPFTFGGGTKVEIK

For this test, the target named is ZIKV strain MR766 (E protein on infectious virus) (Zika virus strain MR766) (UniProt Q32ZE1). Nature of the test: cell-based or functional assay.
For the molecule B1, the in vitro neutralization EC50 (foci counted on Vero cells) is below 0.02 µg/mL.
In turn, B2 displayed an in vitro neutralization EC50 (foci counted on Vero cells) below 0.02 µg/mL.
As for B3, the figure is below 0.02 µg/mL; as for B4, below 0.02 µg/mL.
